Assay results: patent US20110262445A1 (CEPHALON AUSTRALIA, published 2011)

T1: human IL-12 (human, UniProt P29460 23-328; P29459 23-219)
T1 construct: Recombinant (Peprotech); FLAG-tagged IL-12 in the flow cytometry assays, biotinylated in the IL-12Rβ2 assay; also called hIL-12
T1 sequence 1: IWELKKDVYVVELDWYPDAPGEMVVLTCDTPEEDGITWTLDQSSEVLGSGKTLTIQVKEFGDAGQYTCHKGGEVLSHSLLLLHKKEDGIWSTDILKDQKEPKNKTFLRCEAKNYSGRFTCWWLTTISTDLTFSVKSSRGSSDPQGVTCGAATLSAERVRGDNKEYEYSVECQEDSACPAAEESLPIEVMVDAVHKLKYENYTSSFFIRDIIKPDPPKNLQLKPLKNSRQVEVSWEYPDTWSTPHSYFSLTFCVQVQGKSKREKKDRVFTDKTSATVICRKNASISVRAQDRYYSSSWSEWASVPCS
T1 sequence 2: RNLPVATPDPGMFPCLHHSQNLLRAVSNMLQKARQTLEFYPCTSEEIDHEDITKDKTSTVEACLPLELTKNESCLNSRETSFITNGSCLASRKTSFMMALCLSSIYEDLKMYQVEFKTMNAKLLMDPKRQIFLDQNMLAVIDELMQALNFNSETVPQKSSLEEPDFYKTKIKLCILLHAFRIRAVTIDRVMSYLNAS

T2: human IL-23 (human, UniProt P29460 23-328; Q9NPF7 20-189)
T2 construct: Recombinant (Ebioscience); HIS-tagged in flow cytometry, biotinylated in some assays; also called hIL-23; rhIL-23
T2 sequence 1: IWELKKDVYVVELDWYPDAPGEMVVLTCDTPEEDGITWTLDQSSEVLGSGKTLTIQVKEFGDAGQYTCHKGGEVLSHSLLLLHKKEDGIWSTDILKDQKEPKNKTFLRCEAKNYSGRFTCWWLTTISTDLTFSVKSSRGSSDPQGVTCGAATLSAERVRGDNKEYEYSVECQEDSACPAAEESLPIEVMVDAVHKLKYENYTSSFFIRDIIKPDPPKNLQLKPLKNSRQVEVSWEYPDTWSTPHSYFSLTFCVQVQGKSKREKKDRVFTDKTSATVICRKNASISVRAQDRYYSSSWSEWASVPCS
T2 sequence 2: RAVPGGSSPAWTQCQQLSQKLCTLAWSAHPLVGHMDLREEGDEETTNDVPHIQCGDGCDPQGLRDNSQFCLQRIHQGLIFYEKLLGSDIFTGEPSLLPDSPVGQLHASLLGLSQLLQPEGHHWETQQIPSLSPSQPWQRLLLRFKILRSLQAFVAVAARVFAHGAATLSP


Tests used:
human IL-12 [1] = biological target: T1, human IL-12; assay: SPR, IgG on Protein A
Procedure: (§1) Using a SPR 3000, Protein A was immobilized onto FC1 and FC2 (or alternatively FC3 and FC4) of a CM5 research grade sensor chip using amine coupling, giving approximately […] RU. FC1 was used a blank throughout the experiments. The experiments were run in HBS-P buffer (SPR). At a flow rate of 20 μl/min, 20 μl of 5 μg/mL of antibody was passed over FC2. IL-12, IL-23 or IL-12p40 (Peprotech) were passed over the surface of FC1 and FC2 at concentrations ranging from 66 nM to 2 nM. Regeneration of the surface was performed using 10 mM Glycine, pH 1.0. The sensorgram data from FC2 was subtracted from FC1 and a buffer only control. The curves were fitted using a 1:1 Langmuir equation to generate the kd, ka and KD values. All curves were fitted with a χ² of less then 2.0 where possible.

human IL-23 [2] = biological target: T2, human IL-23; assay: SPR, IgG on Protein A
Procedure: as §1

human IL-12 [3] = biological target: T1, human IL-12; assay: ELISA, coated IL-12
How it was run: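 Binding values are absorbance readings. After cytokine (1 μg/mL, carbonate buffer pH 9.6) was coated onto Maxisorp plates overnight at 4° C and the plates were blocked with 1% BSA in PBS, antibody titrations were bound for 1 hour at 25° C and detected with HRP-linked goat anti-human IgG or anti-murine immunoglobulin (1:2000). Color from TMB, stopped with 1M HCl, was read at 450 nm with 620 nm as reference.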

human IL-23 [4] = biological target: T2, human IL-23; assay: ELISA, coated IL-23
Procedure: This cysteine at the start of CDR3 could be oxidized, causing heterogeneity in any resulting antibody product. It could also form complexes by disulphide bond formation. Therefore, each of the other 18 (the exceptions being the original Cys and Trp) amino acids was substituted in this position using gene synthesis, and the antibodies were expressed transiently (Antibodies 5, 6, 7, 8, 9, 10, 11, 12, 13, 14, 15, 16, 17, 18, 19, 20, 21, 22). An ELISA was performed on these antibodies (FIG. 9). Some of the antibodies retained binding activity for both IL-12 and IL-23, others only for one cytokine or the other, while others minimally bound to either cytokine.
IL-12 (Peprotech), IL-23 (Ebioscience™), IL-12p40 (Ebioscience™) or IL-12p80 (Peprotech), was diluted to 1 μg/mL in carbonate coating buffer ([…] pH 9.6) and coated onto a 96 well plate (Nunc™, Maxisorp™) overnight at 4° C. The plate was then washed three times with wash buffer (0.01M PBS pH 7.2, 0.05% Tween-20) and then three times with 0.01M PBS pH 7.2. The wells were then blocked by adding 200 μl of blocking buffer (1% w/v BSA in 0.01 M PBS pH 7.2) to each well and incubating the plate at 25° C. for 1 hour. The antibody was diluted in antibody diluent (1% w/v BSA, 0.05% Tween-20 in 0.01M PBS pH 7.2) sufficient to generate a titration curve. The wells were incubated with the antibody for 1 hour at 25° C. The plate was then washed as previously described. Goat anti-human immunoglobulin G (H+L) antibody HRP conjugate (Zymed®) at 1:2000 in antibody diluent was used to detect bound primary antibody. Goat anti-murine immunoglobulin antibody HRP conjugate (Dako) at 1:2000 in antibody diluent was used to detect bound murine antibody. After incubation at 25° C. for 1 hour the plate was washed again as previously described. TMB substrate solution (Zymed®) was added to each well and the colour allowed to develop; the reaction was terminated by adding 1M HCl to the wells. The absorbance of each well was determined at 450 nm (ref. 620 nm).

Binder	binding result (human IL-12 [3])	binding result (human IL-23 [4])	also measured
Antibody 3 (antibody, human IgG1, kappa, V domains shown, Antibody 1 with light chain W94F) VH: EVQLQQSGADLVRSGASIKLSCTASGFNIKDYYMHWVKQRPEQGLEWIGWIDPENGDTEYAPKFQGKATMTADTSSNTAYLQLSSLTSEDTAVYYCNACKELRYFDVWGAGTTVTVSS VL: DIVLTQSPATLSVTPGDSVSLSCRASQSISINLHWYQQKSHESPRLLIKFASQSISGIPSRFSGYGSGTDFTLSINSVETEDFGRYFCQQSNSFPLTFGAGTKLELKR	–	–	Kd (human IL-12 [1]): 0.0438 nM; koff (human IL-12 [1]): 9.39e-05 s⁻¹; kon (human IL-12 [1]): 2.15e+06 M⁻¹ s⁻¹; Kd (human IL-23 [2]): 0.0896 nM; koff (human IL-23 [2]): 0.000111 s⁻¹; kon (human IL-23 [2]): 1.24e+06 M⁻¹ s⁻¹
Antibody 13 (antibody, human IgG1, kappa, V domains shown) VH: EVQLQQSGADLVRSGASIKLSCTASGFNIKDYYMHWVKQRPEQGLEWIGWIDPENGDTEYAPKFQGKATMTADTSSNTAYLQLSSLTSEDTAVYYCNAIKELRYFDVWGAGTTVTVSS VL: DIVLTQSPATLSVTPGDSVSLSCRASQSISINLHWYQQKSHESPRLLIKFASQSISGIPSRFSGYGSGTDFTLSINSVETEDFGRYFCQQSNSWPLTFGAGTKLELKR	binds	binds	–
Antibody 11 (antibody, human IgG1, kappa, V domains shown) VH: EVQLQQSGADLVRSGASIKLSCTASGFNIKDYYMHWVKQRPEQGLEWIGWIDPENGDTEYAPKFQGKATMTADTSSNTAYLQLSSLTSEDTAVYYCNAGKELRYFDVWGAGTTVTVSS VL: DIVLTQSPATLSVTPGDSVSLSCRASQSISINLHWYQQKSHESPRLLIKFASQSISGIPSRFSGYGSGTDFTLSINSVETEDFGRYFCQQSNSWPLTFGAGTKLELKR	binds	binds	–
Antibody 19 (antibody, human IgG1, kappa, V domains shown) VH: EVQLQQSGADLVRSGASIKLSCTASGFNIKDYYMHWVKQRPEQGLEWIGWIDPENGDTEYAPKFQGKATMTADTSSNTAYLQLSSLTSEDTAVYYCNASKELRYFDVWGAGTTVTVSS VL: DIVLTQSPATLSVTPGDSVSLSCRASQSISINLHWYQQKSHESPRLLIKFASQSISGIPSRFSGYGSGTDFTLSINSVETEDFGRYFCQQSNSWPLTFGAGTKLELKR	binds	binds	–
Antibody 20 (antibody, human IgG1, kappa, V domains shown) VH: EVQLQQSGADLVRSGASIKLSCTASGFNIKDYYMHWVKQRPEQGLEWIGWIDPENGDTEYAPKFQGKATMTADTSSNTAYLQLSSLTSEDTAVYYCNATKELRYFDVWGAGTTVTVSS VL: DIVLTQSPATLSVTPGDSVSLSCRASQSISINLHWYQQKSHESPRLLIKFASQSISGIPSRFSGYGSGTDFTLSINSVETEDFGRYFCQQSNSWPLTFGAGTKLELKR	binds	binds	–
Antibody 9 (antibody, human IgG1, kappa, V domains shown) VH: EVQLQQSGADLVRSGASIKLSCTASGFNIKDYYMHWVKQRPEQGLEWIGWIDPENGDTEYAPKFQGKATMTADTSSNTAYLQLSSLTSEDTAVYYCNAEKELRYFDVWGAGTTVTVSS VL: DIVLTQSPATLSVTPGDSVSLSCRASQSISINLHWYQQKSHESPRLLIKFASQSISGIPSRFSGYGSGTDFTLSINSVETEDFGRYFCQQSNSWPLTFGAGTKLELKR	binds	binds	–
Antibody 4 (antibody, human IgG1, kappa, V domains shown, Antibody 1 with heavy chain M34L) VH: EVQLQQSGADLVRSGASIKLSCTASGFNIKDYYLHWVKQRPEQGLEWIGWIDPENGDTEYAPKFQGKATMTADTSSNTAYLQLSSLTSEDTAVYYCNACKELRYFDVWGAGTTVTVSS VL: DIVLTQSPATLSVTPGDSVSLSCRASQSISINLHWYQQKSHESPRLLIKFASQSISGIPSRFSGYGSGTDFTLSINSVETEDFGRYFCQQSNSWPLTFGAGTKLELKR	–	–	Kd (human IL-12 [1]): 0.133 nM; koff (human IL-12 [1]): 0.000204 s⁻¹; kon (human IL-12 [1]): 1.54e+06 M⁻¹ s⁻¹; Kd (human IL-23 [2]): 0.127 nM; koff (human IL-23 [2]): 0.000158 s⁻¹; kon (human IL-23 [2]): 1.25e+06 M⁻¹ s⁻¹

More lines, main results first:

binding result (human IL-12 [3])	binding result (human IL-23 [4])	Binder	also measured
binds	binds	Antibody 10 (antibody, human IgG1, kappa, V domains shown) VH: EVQLQQSGADLVRSGASIKLSCTASGFNIKDYYMHWVKQRPEQGLEWIGWIDPENGDTEYAPKFQGKATMTADTSSNTAYLQLSSLTSEDTAVYYCNAQKELRYFDVWGAGTTVTVSS VL: DIVLTQSPATLSVTPGDSVSLSCRASQSISINLHWYQQKSHESPRLLIKFASQSISGIPSRFSGYGSGTDFTLSINSVETEDFGRYFCQQSNSWPLTFGAGTKLELKR	–
binds	binds	Antibody 17 (antibody, human IgG1, kappa, V domains shown) VH: EVQLQQSGADLVRSGASIKLSCTASGFNIKDYYMHWVKQRPEQGLEWIGWIDPENGDTEYAPKFQGKATMTADTSSNTAYLQLSSLTSEDTAVYYCNAFKELRYFDVWGAGTTVTVSS VL: DIVLTQSPATLSVTPGDSVSLSCRASQSISINLHWYQQKSHESPRLLIKFASQSISGIPSRFSGYGSGTDFTLSINSVETEDFGRYFCQQSNSWPLTFGAGTKLELKR	–
binds	binds	Antibody 22 (antibody, human IgG1, kappa, V domains shown) VH: EVQLQQSGADLVRSGASIKLSCTASGFNIKDYYMHWVKQRPEQGLEWIGWIDPENGDTEYAPKFQGKATMTADTSSNTAYLQLSSLTSEDTAVYYCNAVKELRYFDVWGAGTTVTVSS VL: DIVLTQSPATLSVTPGDSVSLSCRASQSISINLHWYQQKSHESPRLLIKFASQSISGIPSRFSGYGSGTDFTLSINSVETEDFGRYFCQQSNSWPLTFGAGTKLELKR	–
binds	binds	Antibody 12 (antibody, human IgG1, kappa, V domains shown) VH: EVQLQQSGADLVRSGASIKLSCTASGFNIKDYYMHWVKQRPEQGLEWIGWIDPENGDTEYAPKFQGKATMTADTSSNTAYLQLSSLTSEDTAVYYCNAHKELRYFDVWGAGTTVTVSS VL: DIVLTQSPATLSVTPGDSVSLSCRASQSISINLHWYQQKSHESPRLLIKFASQSISGIPSRFSGYGSGTDFTLSINSVETEDFGRYFCQQSNSWPLTFGAGTKLELKR	–
binds	binds	Antibody 18 (antibody, human IgG1, kappa, V domains shown) VH: EVQLQQSGADLVRSGASIKLSCTASGFNIKDYYMHWVKQRPEQGLEWIGWIDPENGDTEYAPKFQGKATMTADTSSNTAYLQLSSLTSEDTAVYYCNAPKELRYFDVWGAGTTVTVSS VL: DIVLTQSPATLSVTPGDSVSLSCRASQSISINLHWYQQKSHESPRLLIKFASQSISGIPSRFSGYGSGTDFTLSINSVETEDFGRYFCQQSNSWPLTFGAGTKLELKR	–
